Measurements from US20210347870A1.
Numbering of substitutions follows the chain as printed.

B1: C2G4 scFv protein (scFv)
scFv: EVQLLESGGGLVQPGGSLRLSCAASGFTFSNYAMSWVRQAPGKGLEWVSGIPPDSGSKYYADSVRGRFTVSRDNSKNTLYLQMNSLRAEDTAVYYCAKNMLSFDYWGQGTLVTVSSGGGGSGGGGSGGGGSQSVLTQPPSASGTPGQRVTISCTGSSSNIGSNAVSWYQQLPGTAPKLLIYYNSKRPSGVPDRFSGSKSGTSASLAISGLRSEDEADYYCGSWDPSLNGYVFGGGTKVTVLG
B2: MS501 scFv protein (scFv)
scFv: EVQLLESGGGLVQPGGSLRLSCAASGFTFSNYAMSWVRQAPGKGLEWVSGIYPDSGSTYYADSVKGRFTISRDNSKNTLYLQMNSLRAEDTAVYYCARNIYTFDYWGQGTLVTVSSGGGGSGGGGSGGGGSQSVLTQPPSASGTPGQRVTISCSGSSSNIGSNAVSWYQQLPGTAPKLLIYYNNQRPSGVPDRFSGSKSGTSASLAISGLRSEDEADYYCGSWDSSLSGYVFGGGTKLTVLG
B3: MS503 scFv protein (scFv)
scFv: B2 scFv with G50S, D54G, S55D, R98K, I100A, Y101F, N184S, Q185H, S222T

Target: mesothelin on MIA PaCa2-MSLN cells (mesothelin-overexpressing human pancreatic cancer cell line) (UniProt Q13421)
Test: flow cytometry: 1 µg scFv on 1x10^5 MIA PaCa2-MSLN cells, anti-6X His tag antibody detection

UniProt Q13421, sequence (Q13421 other isoform, or with tags, fused parts or gaps limits assumed): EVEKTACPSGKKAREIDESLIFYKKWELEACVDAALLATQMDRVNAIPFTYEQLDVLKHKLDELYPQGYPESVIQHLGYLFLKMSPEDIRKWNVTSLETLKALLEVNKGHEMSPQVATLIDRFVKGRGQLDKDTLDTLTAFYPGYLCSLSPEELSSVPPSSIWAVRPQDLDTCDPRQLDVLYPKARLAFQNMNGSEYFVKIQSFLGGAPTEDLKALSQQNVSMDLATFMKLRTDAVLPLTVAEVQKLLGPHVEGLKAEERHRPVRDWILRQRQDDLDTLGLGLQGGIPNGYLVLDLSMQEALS

Percent bound, > 68%:
B1, B2, B3
